In US20230365662A1:
Values joined by “and” are separate entries in the source; they are usually repeats but may differ in a detail not shown here. Equal entries are not always repeated.

Biological target: HRgpA-6H (Porphyromonas gingivalis) (UniProt P28784)
Assay: ELISA, FASEBA Fab on coated HRgpA-6H

UniProt P28784, sequence (P28784 228-991): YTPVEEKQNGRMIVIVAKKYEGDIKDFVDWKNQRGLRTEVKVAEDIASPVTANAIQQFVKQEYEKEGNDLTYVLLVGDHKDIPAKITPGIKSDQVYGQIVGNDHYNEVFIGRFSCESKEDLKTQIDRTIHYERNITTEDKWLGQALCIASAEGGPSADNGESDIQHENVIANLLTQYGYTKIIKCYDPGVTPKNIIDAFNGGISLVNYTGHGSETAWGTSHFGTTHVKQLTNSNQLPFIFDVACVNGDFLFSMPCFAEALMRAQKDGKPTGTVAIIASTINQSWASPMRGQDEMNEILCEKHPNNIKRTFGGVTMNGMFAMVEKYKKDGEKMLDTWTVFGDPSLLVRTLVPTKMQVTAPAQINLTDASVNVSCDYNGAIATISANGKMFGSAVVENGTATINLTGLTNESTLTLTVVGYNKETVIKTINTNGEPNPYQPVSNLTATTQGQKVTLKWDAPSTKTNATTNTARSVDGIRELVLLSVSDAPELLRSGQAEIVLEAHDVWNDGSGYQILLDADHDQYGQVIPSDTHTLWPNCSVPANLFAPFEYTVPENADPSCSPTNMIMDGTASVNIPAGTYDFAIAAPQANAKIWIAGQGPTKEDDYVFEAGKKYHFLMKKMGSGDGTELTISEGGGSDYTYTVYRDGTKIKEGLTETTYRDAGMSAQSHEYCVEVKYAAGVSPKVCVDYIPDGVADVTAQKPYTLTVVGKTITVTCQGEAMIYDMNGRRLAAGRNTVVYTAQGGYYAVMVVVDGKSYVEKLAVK

| Binder | OD450nm | Ratio OD(Variant)/OD(WT) |
| --- | --- | --- |
| KB001 mouse Fab VL S27M (Fab, V domains shown) VH: EVQLKQSGPGLVAPSQSLSITCTVSGFSLSIYSVHWVRQPPGKGLEWLGMIWGGGSSDYNSALKSRLSISKDNSKSQVFLKMNSLQTDDTAMYYCARNGNFYAMDYWGQGTSVTVSS VL: QIVLTQSPAIMSASLGERVTMTCTASMSVSSSFLHWYQQKPGSSPQLWIYSTSNLASGVPARFSGSGSGTSYSLTISSMEAEDAATYYCHQYHHSPYIYTFGGGTKLEIK | 0.709 | 0.945 |
| KB001 mouse Fab VL S30M (Fab, V domains shown) VH: EVQLKQSGPGLVAPSQSLSITCTVSGFSLSIYSVHWVRQPPGKGLEWLGMIWGGGSSDYNSALKSRLSISKDNSKSQVFLKMNSLQTDDTAMYYCARNGNFYAMDYWGQGTSVTVSS VL: QIVLTQSPAIMSASLGERVTMTCTASSSVMSSFLHWYQQKPGSSPQLWIYSTSNLASGVPARFSGSGSGTSYSLTISSMEAEDAATYYCHQYHHSPYIYTFGGGTKLEIK | 0.818 | 0.949 |
| KB001 mouse Fab VL S28D (Fab, V domains shown) VH: EVQLKQSGPGLVAPSQSLSITCTVSGFSLSIYSVHWVRQPPGKGLEWLGMIWGGGSSDYNSALKSRLSISKDNSKSQVFLKMNSLQTDDTAMYYCARNGNFYAMDYWGQGTSVTVSS VL: QIVLTQSPAIMSASLGERVTMTCTASSDVSSSFLHWYQQKPGSSPQLWIYSTSNLASGVPARFSGSGSGTSYSLTISSMEAEDAATYYCHQYHHSPYIYTFGGGTKLEIK | 0.745 and 0.722 | 0.993 and 0.962 |
| KB001 mouse Fab VL S28H (Fab, V domains shown) VH: EVQLKQSGPGLVAPSQSLSITCTVSGFSLSIYSVHWVRQPPGKGLEWLGMIWGGGSSDYNSALKSRLSISKDNSKSQVFLKMNSLQTDDTAMYYCARNGNFYAMDYWGQGTSVTVSS VL: QIVLTQSPAIMSASLGERVTMTCTASSHVSSSFLHWYQQKPGSSPQLWIYSTSNLASGVPARFSGSGSGTSYSLTISSMEAEDAATYYCHQYHHSPYIYTFGGGTKLEIK | 0.719 | 0.958 |
| KB001 mouse Fab VL S28T/S12R (Fab, V domains shown) VH: EVQLKQSGPGLVAPSQSLSITCTVSGFSLSIYSVHWVRQPPGKGLEWLGMIWGGGSSDYNSALKSRLSISKDNSKSQVFLKMNSLQTDDTAMYYCARNGNFYAMDYWGQGTSVTVSS VL: QIVLTQSPAIMRASLGERVTMTCTASSTVSSSFLHWYQQKPGSSPQLWIYSTSNLASGVPARFSGSGSGTSYSLTISSMEAEDAATYYCHQYHHSPYIYTFGGGTKLEIK | 0.747 | 0.995 |
| KB001 mouse Fab VL S30L (Fab, V domains shown) VH: EVQLKQSGPGLVAPSQSLSITCTVSGFSLSIYSVHWVRQPPGKGLEWLGMIWGGGSSDYNSALKSRLSISKDNSKSQVFLKMNSLQTDDTAMYYCARNGNFYAMDYWGQGTSVTVSS VL: QIVLTQSPAIMSASLGERVTMTCTASSSVLSSFLHWYQQKPGSSPQLWIYSTSNLASGVPARFSGSGSGTSYSLTISSMEAEDAATYYCHQYHHSPYIYTFGGGTKLEIK | 0.813 | 0.943 |
| KB001 mouse Fab VL S30D (Fab, V domains shown) VH: EVQLKQSGPGLVAPSQSLSITCTVSGFSLSIYSVHWVRQPPGKGLEWLGMIWGGGSSDYNSALKSRLSISKDNSKSQVFLKMNSLQTDDTAMYYCARNGNFYAMDYWGQGTSVTVSS VL: QIVLTQSPAIMSASLGERVTMTCTASSSVDSSFLHWYQQKPGSSPQLWIYSTSNLASGVPARFSGSGSGTSYSLTISSMEAEDAATYYCHQYHHSPYIYTFGGGTKLEIK | 0.702 and 0.723 | 0.814 and 0.839 |
| KB001 mouse Fab VL S31Q (Fab, V domains shown) VH: EVQLKQSGPGLVAPSQSLSITCTVSGFSLSIYSVHWVRQPPGKGLEWLGMIWGGGSSDYNSALKSRLSISKDNSKSQVFLKMNSLQTDDTAMYYCARNGNFYAMDYWGQGTSVTVSS VL: QIVLTQSPAIMSASLGERVTMTCTASSSVSQSFLHWYQQKPGSSPQLWIYSTSNLASGVPARFSGSGSGTSYSLTISSMEAEDAATYYCHQYHHSPYIYTFGGGTKLEIK | 0.83 and 0.745 and 0.782 | 0.982 and 0.882 and 0.925 |
| KB001 mouse Fab VL V29L (Fab, V domains shown) VH: EVQLKQSGPGLVAPSQSLSITCTVSGFSLSIYSVHWVRQPPGKGLEWLGMIWGGGSSDYNSALKSRLSISKDNSKSQVFLKMNSLQTDDTAMYYCARNGNFYAMDYWGQGTSVTVSS VL: QIVLTQSPAIMSASLGERVTMTCTASSSLSSSFLHWYQQKPGSSPQLWIYSTSNLASGVPARFSGSGSGTSYSLTISSMEAEDAATYYCHQYHHSPYIYTFGGGTKLEIK | 0.751 | 0.871 |
| KB001 mouse Fab VL S30W (Fab, V domains shown) VH: EVQLKQSGPGLVAPSQSLSITCTVSGFSLSIYSVHWVRQPPGKGLEWLGMIWGGGSSDYNSALKSRLSISKDNSKSQVFLKMNSLQTDDTAMYYCARNGNFYAMDYWGQGTSVTVSS VL: QIVLTQSPAIMSASLGERVTMTCTASSSVWSSFLHWYQQKPGSSPQLWIYSTSNLASGVPARFSGSGSGTSYSLTISSMEAEDAATYYCHQYHHSPYIYTFGGGTKLEIK | 0.823 | 0.955 |
| KB001 mouse Fab VL S30T (Fab, V domains shown) VH: EVQLKQSGPGLVAPSQSLSITCTVSGFSLSIYSVHWVRQPPGKGLEWLGMIWGGGSSDYNSALKSRLSISKDNSKSQVFLKMNSLQTDDTAMYYCARNGNFYAMDYWGQGTSVTVSS VL: QIVLTQSPAIMSASLGERVTMTCTASSSVTSSFLHWYQQKPGSSPQLWIYSTSNLASGVPARFSGSGSGTSYSLTISSMEAEDAATYYCHQYHHSPYIYTFGGGTKLEIK | 0.838 and 0.817 | 0.972 and 0.948 |
| KB001 mouse Fab VL S28M (Fab, V domains shown) VH: EVQLKQSGPGLVAPSQSLSITCTVSGFSLSIYSVHWVRQPPGKGLEWLGMIWGGGSSDYNSALKSRLSISKDNSKSQVFLKMNSLQTDDTAMYYCARNGNFYAMDYWGQGTSVTVSS VL: QIVLTQSPAIMSASLGERVTMTCTASSMVSSSFLHWYQQKPGSSPQLWIYSTSNLASGVPARFSGSGSGTSYSLTISSMEAEDAATYYCHQYHHSPYIYTFGGGTKLEIK | 0.706 and 0.675 | 0.941 and 0.899 |
| KB001 mouse Fab VL S30H (Fab, V domains shown) VH: EVQLKQSGPGLVAPSQSLSITCTVSGFSLSIYSVHWVRQPPGKGLEWLGMIWGGGSSDYNSALKSRLSISKDNSKSQVFLKMNSLQTDDTAMYYCARNGNFYAMDYWGQGTSVTVSS VL: QIVLTQSPAIMSASLGERVTMTCTASSSVHSSFLHWYQQKPGSSPQLWIYSTSNLASGVPARFSGSGSGTSYSLTISSMEAEDAATYYCHQYHHSPYIYTFGGGTKLEIK | 0.808 and 0.747 | 0.937 and 0.867 |
| KB001 mouse Fab VL V29I (Fab, V domains shown) VH: EVQLKQSGPGLVAPSQSLSITCTVSGFSLSIYSVHWVRQPPGKGLEWLGMIWGGGSSDYNSALKSRLSISKDNSKSQVFLKMNSLQTDDTAMYYCARNGNFYAMDYWGQGTSVTVSS VL: QIVLTQSPAIMSASLGERVTMTCTASSSISSSFLHWYQQKPGSSPQLWIYSTSNLASGVPARFSGSGSGTSYSLTISSMEAEDAATYYCHQYHHSPYIYTFGGGTKLEIK | 0.853 | 0.99 |
| KB001 mouse Fab VL S30R (Fab, V domains shown) VH: EVQLKQSGPGLVAPSQSLSITCTVSGFSLSIYSVHWVRQPPGKGLEWLGMIWGGGSSDYNSALKSRLSISKDNSKSQVFLKMNSLQTDDTAMYYCARNGNFYAMDYWGQGTSVTVSS VL: QIVLTQSPAIMSASLGERVTMTCTASSSVRSSFLHWYQQKPGSSPQLWIYSTSNLASGVPARFSGSGSGTSYSLTISSMEAEDAATYYCHQYHHSPYIYTFGGGTKLEIK | 0.778 and 0.793 and 0.802 | 0.903 and 0.92 and 0.93 |
| KB001 mouse Fab VL S30K (Fab, V domains shown) VH: EVQLKQSGPGLVAPSQSLSITCTVSGFSLSIYSVHWVRQPPGKGLEWLGMIWGGGSSDYNSALKSRLSISKDNSKSQVFLKMNSLQTDDTAMYYCARNGNFYAMDYWGQGTSVTVSS VL: QIVLTQSPAIMSASLGERVTMTCTASSSVKSSFLHWYQQKPGSSPQLWIYSTSNLASGVPARFSGSGSGTSYSLTISSMEAEDAATYYCHQYHHSPYIYTFGGGTKLEIK | 0.77 | 0.893 |
| KB001 mouse Fab VL S30E (Fab, V domains shown) VH: EVQLKQSGPGLVAPSQSLSITCTVSGFSLSIYSVHWVRQPPGKGLEWLGMIWGGGSSDYNSALKSRLSISKDNSKSQVFLKMNSLQTDDTAMYYCARNGNFYAMDYWGQGTSVTVSS VL: QIVLTQSPAIMSASLGERVTMTCTASSSVESSFLHWYQQKPGSSPQLWIYSTSNLASGVPARFSGSGSGTSYSLTISSMEAEDAATYYCHQYHHSPYIYTFGGGTKLEIK | 0.813 | 0.943 |
| KB001 mouse Fab VL S30I (Fab, V domains shown) VH: EVQLKQSGPGLVAPSQSLSITCTVSGFSLSIYSVHWVRQPPGKGLEWLGMIWGGGSSDYNSALKSRLSISKDNSKSQVFLKMNSLQTDDTAMYYCARNGNFYAMDYWGQGTSVTVSS VL: QIVLTQSPAIMSASLGERVTMTCTASSSVISSFLHWYQQKPGSSPQLWIYSTSNLASGVPARFSGSGSGTSYSLTISSMEAEDAATYYCHQYHHSPYIYTFGGGTKLEIK | 0.86 | 0.998 |
| KB001 mouse Fab VL S31D (Fab, V domains shown) VH: EVQLKQSGPGLVAPSQSLSITCTVSGFSLSIYSVHWVRQPPGKGLEWLGMIWGGGSSDYNSALKSRLSISKDNSKSQVFLKMNSLQTDDTAMYYCARNGNFYAMDYWGQGTSVTVSS VL: QIVLTQSPAIMSASLGERVTMTCTASSSVSDSFLHWYQQKPGSSPQLWIYSTSNLASGVPARFSGSGSGTSYSLTISSMEAEDAATYYCHQYHHSPYIYTFGGGTKLEIK | 0.762 | 0.902 |
| KB001 mouse Fab VL S31W (Fab, V domains shown) VH: EVQLKQSGPGLVAPSQSLSITCTVSGFSLSIYSVHWVRQPPGKGLEWLGMIWGGGSSDYNSALKSRLSISKDNSKSQVFLKMNSLQTDDTAMYYCARNGNFYAMDYWGQGTSVTVSS VL: QIVLTQSPAIMSASLGERVTMTCTASSSVSWSFLHWYQQKPGSSPQLWIYSTSNLASGVPARFSGSGSGTSYSLTISSMEAEDAATYYCHQYHHSPYIYTFGGGTKLEIK | 0.808 | 0.956 |
| KB001 mouse Fab VL S28N (Fab, V domains shown) VH: EVQLKQSGPGLVAPSQSLSITCTVSGFSLSIYSVHWVRQPPGKGLEWLGMIWGGGSSDYNSALKSRLSISKDNSKSQVFLKMNSLQTDDTAMYYCARNGNFYAMDYWGQGTSVTVSS VL: QIVLTQSPAIMSASLGERVTMTCTASSNVSSSFLHWYQQKPGSSPQLWIYSTSNLASGVPARFSGSGSGTSYSLTISSMEAEDAATYYCHQYHHSPYIYTFGGGTKLEIK | 0.743 | 0.99 |
